This note sets out measurements from patent US20200283528A1 (NUMAB THERAPEUTICS, published 2020).

The target of test [1] is T1, human PDL1 expressed on cells (human, UniProt Q9NZQ7 19-290). Briefly: cell-based or functional assay.
The target in test [2] is T2, human PDL1 (recombinant, soluble) (human, UniProt Q9NZQ7 19-238).
T2 construct: also called hPDL1; hPD-L1
Briefly: PDL1/PD-1 competition ELISA; PD-1 coated, biotinylated PDL1 1 ng/ml. As for the experimental part: (§1) ELISA microplates coated overnight at 4° C. with 4 μg/ml human PD-1 were washed three times with 450 μl wash buffer per well. Plates were blocked for 1 hour at room temperature by adding 300 μl of PBS with 1% BSA and 0.2% tween (dilution buffer) to each well. […] The mixtures were pre-incubated for 1 hour at room temperature under gentle agitation on a rotating mixer (21 rpm) and added to the microplates after 3 wash cycles with 450 μl wash buffer per well. Plates were incubated for 1.5 hours at room temperature under gentle agitation, then 10 ng/ml streptavidin-polyHRP40 was added to each microplate well after three washes with 450 μl of wash buffer per well. After 1 h incubation at RT, plates were washed three times with 450 μl wash buffer and TMB substrate solution was added. The enzymatic reaction was stopped after 6 minutes by addition of 1 M HCl and absorbance was measured at 450 nm using 690 nm as a reference wavelength. For calculation of IC₅₀ values, a four-parameter logistic (4PL) curve fit was performed in Graph Pad Prism using reference subtracted values.

For test [3], the target named is T2, human PDL1 (recombinant, soluble). Briefly: PDL1/B7-1 competition ELISA; B7-1 coated, biotinylated PDL1 40 ng/ml. As for the experimental part:
as §1, with “B7-1” for “PD-1”
(In an ELISA, binding on a coated surface is turned into a signal by an enzyme label.)

In test [4] the target is T1, human PDL1 expressed on cells. Briefly: cell-based or functional assay. The source holds these as a separate data set.
Test [5] deals with cynomolgus PDL1, recombinant (Sino Biological) / PDL1-Fc chimeric protein (cynomolgus (Macaca fascicularis), UniProt G7PSE7 19-238). Briefly: SPR Biacore T200; cynomolgus PDL1 (Sino Biological) captured; scFv as analyte. As for the experimental part: After each analyte injection cycle, the CM5 sensor chip was regenerated and new antigen was captured. The scFvs were injected as analyte using a dose response multicycle kinetic assay with concentrations of the analyte ranging from 0.12 to 30 nM diluted in running buffer for 5 min and dissociation of the protein was allowed to proceed for 12 min. Obtained sensorgrams were fitted using the 1:1 binding model.
cynomolgus PDL1, recombinant (Sino Biological) / PDL1-Fc chimeric protein, sequence (G7PSE7 entry or part of it mutant limits assumed): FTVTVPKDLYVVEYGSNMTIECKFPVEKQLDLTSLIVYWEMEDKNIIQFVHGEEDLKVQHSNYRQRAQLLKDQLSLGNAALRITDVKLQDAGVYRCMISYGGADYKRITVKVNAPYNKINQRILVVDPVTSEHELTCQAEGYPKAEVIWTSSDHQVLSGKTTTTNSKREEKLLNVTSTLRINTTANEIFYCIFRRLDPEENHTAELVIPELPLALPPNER
A general note: SPR reads the build-up and loss of mass on a sensor chip optically.

B1: PRO963 (= PRO1051)(38_02_A04 sc01 scDb-i/33-03-G02 sc01 scDb-o/19-01-H04-sc03 scFv) (other)
chain: DIQMTQSPSSLSASVGDRVTITCQASQSINDYLAWYQQKPGKAPKLLIYKASTLASGVPSRFSGSGSGTDFTLTISSLQPEDFATYYCQQGYIITDIDNVFGTGTKVTVLGGGGGSQVQLQESGPGLVKPSETLSLTCKVSGFSFSNSYWICWIRQPPGKGLEWIGCTFVGSSDSTYYANWAKGRVTISVDSSKNQFSLKLSSVTAADTAVYYCARHPSDAVYGYANNLWGQGTLVTVSSGGGGSGGGGSGGGGSGGGGSIQMTQSPSSLSASVGDRVTITCQASQSINNVLAWYQQKPGKAPKLLIYRASTLASGVPSRFSGSGSGTDFTLTISSLQPEDFATYYCQSSYGNYGDFGTGTKVTVLGGGGGSQVQLQESGPGLVKPSETLSLTCKVSGFSFSSGYDMCWIRQPPGKGLEWIGCVVAGSVDITYYASWAKGRVTISVDSSKNQFSLKLSSVTAADTAVYYCARKDAYSDAFNLWGQGTLVTVSSGGGGSGGGGSIQMTQSPSSLSASVGDRVTITCQSSESVYSNNQLSWYQQKPGQPPKLLIYDASDLASGVPSRFSGSGSGTDFTLTISSLQPEDFATYYCAGGFSSSSDTAFGGGTKLTVLGGGGGSGGGGSGGGGSGGGGSEVQLVESGGGLVQPGGSLRLSCAASGFSLSSNAMGWVRQAPGKGLEYIGIISVGGFTYYASWAKGRFTISRDNSKNTVYLQMNSLRAEDTATYFCARDRHGGDSSGAFYLWGQGTLVTVSS
With B1, in test [1], the “NF-AT potency assay IC50 (with HSA)” value came to 0.275 µg/mL.

B2: PRO1059 (33-03-G02 IgG1 LC with 38_02_A04 sc01 scFv, PDL1/CD137 (scFv) silent Morrison) (bispecific antibody)
light: DIQMTQSPSSLSASVGDRVTITCQASQSINDYLAWYQQKPGKAPKLLIYKASTLASGVPSRFSGSGSGTDFTLTISSLQPEDFATYYCQQGYIITDIDNVFGTGTKVTVLGTVAAPSVFIFPPSDEQLKSGTASVVCLLNNFYPREAKVQWKVDNALQSGNSQESVTEQDSKDSTYSLSSTLTLSKADYEKHKVYACEVTHQGLSSPVTKSFNRGECGGGGSGGGGSIQMTQSPSSLSASVGDRVTITCQASQSINNVLAWYQQKPGKAPKLLIYRASTLASGVPSRFSGSGSGTDFTLTISSLQPEDFATYYCQSSYGNYGDFGTGTKVTVLGGGGGSGGGGSGGGGSGGGGSQVQLQESGPGLVKPSETLSLTCKVSGFSFSNSYWICWIRQPPGKGLEWIGCTFVGSSDSTYYANWAKGRVTISVDSSKNQFSLKLSSVTAADTAVYYCARHPSDAVYGYANNLWGQGTLVTVSS
heavy: QVQLQESGPGLVKPSETLSLTCKVSGFSFSSGYDMCWIRQPPGKGLEWIGCVVAGSVDITYYASWAKGRVTISVDSSKNQFSLKLSSVTAADTAVYYCARKDAYSDAFNLWGQGTLVTVSSASTKGPSVFPLAPSSKSTSGGTAALGCLVKDYFPEPVTVSWNSGALTSGVHTFPAVLQSSGLYSLSSVVTVPSSSLGTQTYICNVNHKPSNTKVDKRVEPKSCDKTHTCPPCPAPEAAGGPSVFLFPPKPKDTLMISRTPEVTCVVVDVSHEDPEVKFNWYVDGVEVHNAKTKPREEQYNSTYRVVSVLTVLHQDWLNGKEYKCKVSNKALGAPIEKTISKAKGQPREPQVYTLPPSREEMTKNQVSLTCLVKGFYPSDIAVEWESNGQPENNYKTTPPVLDSDGSFFLYSKLTVDKSRWQQGNVFSCSVMHEALHNHYTQKSLSLSPGK
notes: also called Morrison-L
The IC50 is the point on the concentration scale where inhibition reaches its midpoint. For B2, the “NF-AT potency assay IC50” value in test [1] came to 0.0938 µg/mL. In addition, the results for the concentration for half-maximal inhibition (IC50) in test [2] and in test [3] were 0.00454 µg/mL and 0.029 µg/mL, respectively.

B3: PRO1060 (33-03-G02 IgG1 HC with 38_02_A04 sc01 scFv, PDL1/CD137 (scFv) silent Morrison) (bispecific antibody)
light: DIQMTQSPSSLSASVGDRVTITCQASQSINDYLAWYQQKPGKAPKLLIYKASTLASGVPSRFSGSGSGTDFTLTISSLQPEDFATYYCQQGYIITDIDNVFGTGTKVTVLGTVAAPSVFIFPPSDEQLKSGTASVVCLLNNFYPREAKVQWKVDNALQSGNSQESVTEQDSKDSTYSLSSTLTLSKADYEKHKVYACEVTHQGLSSPVTKSFNRGEC
heavy: QVQLQESGPGLVKPSETLSLTCKVSGFSFSSGYDMCWIRQPPGKGLEWIGCVVAGSVDITYYASWAKGRVTISVDSSKNQFSLKLSSVTAADTAVYYCARKDAYSDAFNLWGQGTLVTVSSASTKGPSVFPLAPSSKSTSGGTAALGCLVKDYFPEPVTVSWNSGALTSGVHTFPAVLQSSGLYSLSSVVTVPSSSLGTQTYICNVNHKPSNTKVDKRVEPKSCDKTHTCPPCPAPEAAGGPSVFLFPPKPKDTLMISRTPEVTCVVVDVSHEDPEVKFNWYVDGVEVHNAKTKPREEQYNSTYRVVSVLTVLHQDWLNGKEYKCKVSNKALGAPIEKTISKAKGQPREPQVYTLPPSREEMTKNQVSLTCLVKGFYPSDIAVEWESNGQPENNYKTTPPVLDSDGSFFLYSKLTVDKSRWQQGNVFSCSVMHEALHNHYTQKSLSLSPGKGGGGSGGGGSIQMTQSPSSLSASVGDRVTITCQASQSINNVLAWYQQKPGKAPKLLIYRASTLASGVPSRFSGSGSGTDFTLTISSLQPEDFATYYCQSSYGNYGDFGTGTKVTVLGGGGGSGGGGSGGGGSGGGGSQVQLQESGPGLVKPSETLSLTCKVSGFSFSNSYWICWIRQPPGKGLEWIGCTFVGSSDSTYYANWAKGRVTISVDSSKNQFSLKLSSVTAADTAVYYCARHPSDAVYGYANNLWGQGTLVTVSS
notes: also called Morrison-H
As to B3, the “NF-AT potency assay IC50” value in test [1] came out at 0.133 µg/mL. For the same molecule, the results for the 50% inhibitory concentration (IC50) in test [2] and in test [3] were 0.00567 µg/mL and 0.0174 µg/mL, respectively.

B4: PRO1062 (33-03-G02 sc01 IgG1 HC with 38_27_C05 sc01 scFv, PDL1/CD137 (scFv) silent Morrison) (bispecific antibody)
light: DIQMTQSPSSLSASVGDRVTITCQASQSINDYLAWYQQKPGKAPKLLIYKASTLASGVPSRFSGSGSGTDFTLTISSLQPEDFATYYCQQGYIITDIDNVFGTGTKVTVLGTVAAPSVFIFPPSDEQLKSGTASVVCLLNNFYPREAKVQWKVDNALQSGNSQESVTEQDSKDSTYSLSSTLTLSKADYEKHKVYACEVTHQGLSSPVTKSFNRGEC
heavy: QVQLQESGPGLVKPSETLSLTCKVSGFSFSSGYDMCWIRQPPGKGLEWIGCVVAGSVDITYYASWAKGRVTISVDSSKNQFSLKLSSVTAADTAVYYCARKDAYSDAFNLWGQGTLVTVSSASTKGPSVFPLAPSSKSTSGGTAALGCLVKDYFPEPVTVSWNSGALTSGVHTFPAVLQSSGLYSLSSVVTVPSSSLGTQTYICNVNHKPSNTKVDKRVEPKSCDKTHTCPPCPAPEAAGGPSVFLFPPKPKDTLMISRTPEVTCVVVDVSHEDPEVKFNWYVDGVEVHNAKTKPREEQYNSTYRVVSVLTVLHQDWLNGKEYKCKVSNKALGAPIEKTISKAKGQPREPQVYTLPPSREEMTKNQVSLTCLVKGFYPSDIAVEWESNGQPENNYKTTPPVLDSDGSFFLYSKLTVDKSRWQQGNVFSCSVMHEALHNHYTQKSLSLSPGKGGGGSGGGGSIQMTQSPSSLSASVGDRVTITCQASQSINNVLAWYQQKPGKAPKLLIYRASTLASGVPSRFSGSGSGTDFTLTISSLQPEDFATYYCQSSYGNYGDFGTGTKVTVLGGGGGSGGGGSGGGGSGGGGSQVQLQESGPGLVKPSETLSLTCKVSGFSFSNSYWICWIRQPPGKGLEWIGCTFVGSSDSTYYANWAKGRVTISVDSSKNQFSLKLSSVTAADTAVYYCARHPSDAVYGYANNLWGQGTLVTVSS
notes: also called Morrison-H
Consider B4, for which the results for the concentration for half-maximal inhibition (IC50) in test [2] and in test [3] were 0.0113 µg/mL and 0.0195 µg/mL, respectively.

B5: PRO1347 (37-20-B03-sc09 scFv) (scFv)
chain: DIQMTQSPASLSASVGDRVTITCQASQSIGTYLAWYQQKPGKPPKLLIYRAFILASGVPSRFSGSGSGTDFTLTISSLQPEDFATYYCQSNFYSDSTTIGPNAFGTGTKVTVLGGGGGSGGGGSGGGGSGGGGSEVQLVESGGGLVQPGGSLRLSCAASGFSFNSDYWIYWVRQAPGKGLEWIACIYGGSSGNTQYASWAQGRFTISRDNSKNTVYLQMNSLRAEDTAVYFCARGYVDYGGATDLWGQGTLVTVSS
Broadly, the Kd is the equilibrium constant for the complex coming apart. One may read the koff as the first-order rate constant of dissociation. One may read the kon as the second-order rate constant of association. As to B5, in test [4], the “reporter gene assay IC50” value is 0.00753 µg/mL and the “reporter gene assay Maximum Inhibition (%)” value worked out at 88.9%. Further, in test [5], the “KD, cyno/KD, human” value came out at 1.41; the Kd was 0.0127 nM; the koff amounted to 8.77e-05 s⁻¹; the association rate constant (kon) amounted to 6.88e+06 M⁻¹ s⁻¹.

B6: PRO951 (38-27-C05 sc02 scDb-i/33-03-G02 sc01 scDb-o) (bispecific antibody)
chain: DIQMTQSPSSLSASVGDRVTITCQASQSINDYLAWYQQKPGKAPKLLIYKASTLASGVPSRFSGSGSGTDFTLTISSLQPEDFATYYCQQGYIITDIDNVFGTGTKVTVLGGGGGSEVQLVESGGGLVQPGGSLRLSCAASGFSFNNDYDMCWVRQAPGKGLEWIGCIDTGDGSTYYASWAKGRFTISRDNSKNTVYLQMNSLRAEDTAVYYCAREAASSSGYGMGYFDLWGQGTLVTVSSGGGGSGGGGSGGGGSGGGGSIQMTQSPSSLSASVGDRVTITCQSSQSVYDNNWLAWYQQKPGKAPKLLIYRASNLASGVPSRFSGSGSGTDFTLTISSLQPEDFATYYCQGTYLSSNWYWAFGTGTKVTVLGGGGGSQVQLQESGPGLVKPSETLSLTCKVSGFSFSSGYDMCWIRQPPGKGLEWIGCVVAGSVDITYYASWAKGRVTISVDSSKNQFSLKLSSVTAADTAVYYCARKDAYSDAFNLWGQGTLVTVSS
With B6, the “NF-AT potency assay IC50” value in test [1] turned out to be 0.0885 µg/mL. Also, the 50% inhibitory concentration (IC50) in test [2] was found to be 0.0095 µg/mL; in test [3], 0.0093 µg/mL.
